Target: integrin α5β1 ectodomain (α5 F1–Y954/β1 Q1–D708) (UniProt P08648;P05556)
Test: fluorescence polarisation

Chain of integrin α5β1 ectodomain (α5 F1–Y954/β1 Q1–D708) (P08648 42-995, chain 1 of 2): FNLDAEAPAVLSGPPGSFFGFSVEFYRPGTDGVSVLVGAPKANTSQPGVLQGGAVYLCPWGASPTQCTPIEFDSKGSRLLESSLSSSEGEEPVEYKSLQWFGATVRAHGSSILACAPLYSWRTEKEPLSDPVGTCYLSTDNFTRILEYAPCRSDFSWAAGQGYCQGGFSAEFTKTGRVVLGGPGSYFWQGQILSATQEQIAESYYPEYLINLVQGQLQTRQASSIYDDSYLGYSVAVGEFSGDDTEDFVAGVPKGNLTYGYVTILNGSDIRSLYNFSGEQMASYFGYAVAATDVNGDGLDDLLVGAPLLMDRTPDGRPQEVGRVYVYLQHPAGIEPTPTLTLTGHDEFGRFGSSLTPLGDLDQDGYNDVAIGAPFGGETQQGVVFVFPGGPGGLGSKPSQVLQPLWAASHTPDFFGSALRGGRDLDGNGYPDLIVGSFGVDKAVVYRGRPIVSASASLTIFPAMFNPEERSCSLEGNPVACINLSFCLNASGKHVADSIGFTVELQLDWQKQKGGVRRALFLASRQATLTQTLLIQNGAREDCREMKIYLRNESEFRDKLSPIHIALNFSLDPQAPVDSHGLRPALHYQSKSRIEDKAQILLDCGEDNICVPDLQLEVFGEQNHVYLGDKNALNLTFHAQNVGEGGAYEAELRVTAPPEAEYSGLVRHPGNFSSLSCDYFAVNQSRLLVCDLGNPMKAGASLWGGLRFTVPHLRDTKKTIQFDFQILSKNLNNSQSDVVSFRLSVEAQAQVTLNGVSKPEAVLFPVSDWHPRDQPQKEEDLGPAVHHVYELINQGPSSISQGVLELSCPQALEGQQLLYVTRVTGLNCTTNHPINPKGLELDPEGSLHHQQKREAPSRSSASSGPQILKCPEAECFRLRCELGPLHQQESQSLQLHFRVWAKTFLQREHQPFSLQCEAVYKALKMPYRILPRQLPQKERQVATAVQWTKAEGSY
Chain of integrin α5β1 ectodomain (α5 F1–Y954/β1 Q1–D708) (P05556 21-728, chain 2 of 2): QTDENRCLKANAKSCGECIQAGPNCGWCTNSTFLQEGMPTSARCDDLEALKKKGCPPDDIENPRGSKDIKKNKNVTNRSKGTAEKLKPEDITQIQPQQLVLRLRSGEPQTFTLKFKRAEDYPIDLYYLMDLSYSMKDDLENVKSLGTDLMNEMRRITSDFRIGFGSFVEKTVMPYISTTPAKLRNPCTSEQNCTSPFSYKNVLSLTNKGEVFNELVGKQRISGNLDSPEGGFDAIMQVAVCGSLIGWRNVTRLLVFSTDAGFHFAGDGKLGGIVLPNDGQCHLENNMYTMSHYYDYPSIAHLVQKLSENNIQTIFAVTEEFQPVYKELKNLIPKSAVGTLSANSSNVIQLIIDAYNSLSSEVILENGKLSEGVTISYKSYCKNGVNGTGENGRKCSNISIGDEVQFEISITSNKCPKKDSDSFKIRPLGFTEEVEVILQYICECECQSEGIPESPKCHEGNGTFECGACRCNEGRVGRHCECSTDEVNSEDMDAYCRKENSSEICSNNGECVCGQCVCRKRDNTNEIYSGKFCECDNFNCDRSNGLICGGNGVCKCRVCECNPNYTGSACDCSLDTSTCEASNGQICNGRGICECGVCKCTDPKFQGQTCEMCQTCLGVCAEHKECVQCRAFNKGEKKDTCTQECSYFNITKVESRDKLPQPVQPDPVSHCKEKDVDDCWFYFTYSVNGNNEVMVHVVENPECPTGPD

B1: fibronectin fragment Fn10 (V1416–T1509) (domain or fragment)
chain: not shown
Q: Does B1 bind?
A: binds

From publication PMC9483561 (The Journal of Biological Chemistry, 2022)
